The target of one data set is T1, mammalian alpha-amylase (Homo sapiens, UniProt P04746).
T1 sequence (P04746 16-511): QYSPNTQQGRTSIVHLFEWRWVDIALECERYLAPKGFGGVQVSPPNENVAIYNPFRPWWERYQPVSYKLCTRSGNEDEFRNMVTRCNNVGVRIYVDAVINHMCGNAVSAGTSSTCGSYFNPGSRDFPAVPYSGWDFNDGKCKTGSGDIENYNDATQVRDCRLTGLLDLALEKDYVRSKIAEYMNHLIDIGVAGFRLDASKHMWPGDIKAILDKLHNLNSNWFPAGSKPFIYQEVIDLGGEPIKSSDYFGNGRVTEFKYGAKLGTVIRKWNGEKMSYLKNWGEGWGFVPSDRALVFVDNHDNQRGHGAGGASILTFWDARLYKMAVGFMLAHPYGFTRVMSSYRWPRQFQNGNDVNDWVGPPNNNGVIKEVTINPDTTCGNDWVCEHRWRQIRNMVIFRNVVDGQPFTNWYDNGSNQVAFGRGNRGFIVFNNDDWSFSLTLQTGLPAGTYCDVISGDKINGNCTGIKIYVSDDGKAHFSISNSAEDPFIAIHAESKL
In words: Inhibitory activity of truncated and fusion peptides. The settings on record: for Inhibitory Activity: truncated peptides. Type of data set: biochemical.

For data set [1], the target named is T2, human pancreatic α-amylase (HPA) (Homo sapiens, UniProt P04746).
T2 construct: made in house; host or cells: Pichia pastoris
T2 sequence (P04746 16-511): T1 sequence (P04746 16-511)
In words: Kinetic analysis of HPA inhibition (CNP-G3 hydrolysis, Morrison / Michaelis-Menten). The settings on record: for Ki / inhibition constant estimated in preliminary tests: preliminary inhibitory studies with remaining material. The data set is classed as biochemical. The procedure:
A detailed protocol of this expression can be found in the work done by Rydberg et al. (39) Expression was carried out in Pichia pastoris. Colonies were grown in 600 mL BMGY media at 30° C. 200 RPM. 20 mL of the overnight culture was added to 600 mL BMGY. After 16 hours the cells were transferred to 300 mL BMMY. After one day 2 mL of 50% methanol was added. The culture was left overnight. The culture supernatant was collected and purified via Phenyl Sepharose™ and Hitrap Q™ columns. Deglycosylation was performed with EndoF™.
Reactions were run with a final [CNPG3]=5 mM. […] Kiapp was then used to calculate Ki.
Given the low-nM estimate of Ki for the natural extract, kinetic analysis could not be pursued through standard Michaelis-Menten kinetics (22). In this study, inhibition constants below 50 nM were determined using the Morrison method: inhibition dose response curves at [S]=KM were constructed for varying enzyme concentrations (23, 24). The resulting data (FIG. 2A) was fit to the Morrison equation 1 to determine Ki,app, which could be converted to Ki through equation 2, which is the relationship between these values for competitive inhibition.

For the next data set, the target named is Almond β-glucosidase. In words: Inhibitory specificity: kinetic analysis. The settings on record: up to 1 μM. The data set is classed as biochemical. How it is done: (§1) Assays were performed on a Varian Cary 300™ UV/Vis spectrophotometer. The release of 2-chloro-nitrophenol resulting from the amylase catalyzed hydrolysis of 2-chloro-p-nitrophenyl-α-D-maltotrioside was monitored at 400 nm. Reactions were run at 30° C. in 50 mM sodium phosphate, 100 mM sodium chloride (pH 7.0). Reactions were monitored over 5 minutes to measure the initial reaction rate. […] Reactions were run with a final [CNPG3]=5 mM. […] Up to 5 different enzyme concentrations were used, ranging from 1 nM to 10 nM. v/vo was plotted against [I] for each enzyme concentration to form a series of dose response curves. […] Kiapp was then used to calculate Ki. […] Details of this process can be found in the work done by Tarling et al. (33). After kinetic analysis with HPA, nine additional enzymes were tested against helianthamide. Concentrations of up to 1 μM of Helianthamide were used to assess for inhibition.
(§2) Inhibition of nine other glycosidases was explored (TABLE 4).

Data set [2] concerns the target Bacillus licheniformis α-amylase (Bacillus licheniformis, UniProt P06278). In words: Inhibitory specificity: kinetic analysis. The settings on record: up to 1 μM. The data set is classed as biochemical. The procedure:
as §1, §2

Data set [3] has as its target Bovine liver β-galactosidase. Briefly: Inhibitory specificity: kinetic analysis. The data set is classed as biochemical. To be noted: up to 1 μM. The procedure: as §1, §2
Data set [4] deals with Brewer's yeast α-glucosidase. Briefly: Inhibitory specificity: kinetic analysis. The data set is classed as biochemical. To be noted: up to 1 μM. How it is done:
as §1, §2

Data set [5] addresses Butyrivibrio fibrisolvens α-amylase B. Briefly: Inhibitory specificity: kinetic analysis. The settings on record: up to 1 μM. Type of data set: biochemical. How it is done:
as §1, §2

The target of data set [6] is T3, Green coffee bean α-galactosidase (Coffea arabica, UniProt Q42656).
T3 construct: Green coffee bean α-galactosidase; from tissue; host or cells: green coffee beans
Briefly: Inhibitory specificity: kinetic analysis. The data set is classed as biochemical. The settings on record: up to 1 μM. How it is done: as §1, §2

Data set [7] addresses Human maltase-glucoamylase (Homo sapiens, UniProt O43451). Briefly: Inhibitory specificity: kinetic analysis. To be noted: up to 1 μM. Type of data set: biochemical. The procedure:
as §1, §2

The target of another data set is T4, Jack bean α-mannosidase (Canavalia ensiformis, UniProt C0HJB3).
T4 construct: Jack bean α-mannosidase; from tissue; host or cells: jack bean
T4 sequence (C0HJB3 1-981): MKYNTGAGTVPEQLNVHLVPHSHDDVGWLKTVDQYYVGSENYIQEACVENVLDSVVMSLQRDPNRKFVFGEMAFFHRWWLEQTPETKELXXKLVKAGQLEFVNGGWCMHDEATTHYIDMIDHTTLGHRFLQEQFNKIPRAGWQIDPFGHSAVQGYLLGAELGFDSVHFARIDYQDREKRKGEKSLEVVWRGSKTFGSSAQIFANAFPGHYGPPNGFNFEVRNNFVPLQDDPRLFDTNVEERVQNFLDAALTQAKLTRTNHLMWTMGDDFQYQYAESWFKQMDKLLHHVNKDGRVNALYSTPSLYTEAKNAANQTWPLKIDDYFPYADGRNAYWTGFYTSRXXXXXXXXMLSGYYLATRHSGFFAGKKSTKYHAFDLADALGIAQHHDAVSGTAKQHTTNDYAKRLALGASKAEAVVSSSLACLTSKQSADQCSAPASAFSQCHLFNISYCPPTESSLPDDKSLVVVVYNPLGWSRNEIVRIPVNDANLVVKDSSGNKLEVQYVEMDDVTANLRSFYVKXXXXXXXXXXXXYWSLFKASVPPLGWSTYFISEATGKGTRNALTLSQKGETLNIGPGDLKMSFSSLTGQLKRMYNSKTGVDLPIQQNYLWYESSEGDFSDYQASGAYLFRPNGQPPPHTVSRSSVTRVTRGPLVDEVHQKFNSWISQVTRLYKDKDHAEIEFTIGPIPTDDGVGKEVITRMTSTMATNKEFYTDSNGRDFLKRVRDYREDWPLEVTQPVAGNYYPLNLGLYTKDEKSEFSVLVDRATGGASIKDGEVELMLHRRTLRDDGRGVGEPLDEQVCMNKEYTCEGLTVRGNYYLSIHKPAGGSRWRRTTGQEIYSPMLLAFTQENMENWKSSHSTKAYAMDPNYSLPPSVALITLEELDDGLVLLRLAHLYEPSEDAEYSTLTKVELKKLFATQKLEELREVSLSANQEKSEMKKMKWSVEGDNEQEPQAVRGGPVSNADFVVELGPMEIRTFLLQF
Briefly: Inhibitory specificity: kinetic analysis. The data set is classed as biochemical. The settings on record: up to 1 μM. The procedure: as §1, §2

In data set [8] the target is Roseburia inulinivorans α-amylase A. In words: Inhibitory specificity: kinetic analysis. The data set is classed as biochemical. The settings on record: up to 1 μM. The procedure:
as §1, §2

Data set [9] concerns trypsin, chymotrypsin, proteinase K, and Lys-C.
The conditions of data set [10]: 11M HCl at 37° C. for four days, HPLC.
Method: The sample was diluted and neutralized before desalting by C18 reverse phase chromatography. The peptide mixture was injected into an Agilent™ 6460 QQQ LC/MS mass spectrometer. Elution and MS/MS analysis was carried out over a 40-minute period. A script was written to predict all possible fragments for the helianthamide sequence in the event of random hydrolysis and was used to analyze the resulting MS and MS/MS peaks.
Intact peptide was incubated in 11M HCl at 37° C. for four days.
Data set [11] deals with T2, human pancreatic α-amylase (HPA). The settings on record: from parallel screen; read-out: Ki against HPA; cited from earlier work.

pKi: −log10 of the molar value. Entries after “also recorded” stand apart in the source; their conditions may differ. Bridges are numbered along the chain shown (N, C = ends).

T3 sequence (Q42656 16-378): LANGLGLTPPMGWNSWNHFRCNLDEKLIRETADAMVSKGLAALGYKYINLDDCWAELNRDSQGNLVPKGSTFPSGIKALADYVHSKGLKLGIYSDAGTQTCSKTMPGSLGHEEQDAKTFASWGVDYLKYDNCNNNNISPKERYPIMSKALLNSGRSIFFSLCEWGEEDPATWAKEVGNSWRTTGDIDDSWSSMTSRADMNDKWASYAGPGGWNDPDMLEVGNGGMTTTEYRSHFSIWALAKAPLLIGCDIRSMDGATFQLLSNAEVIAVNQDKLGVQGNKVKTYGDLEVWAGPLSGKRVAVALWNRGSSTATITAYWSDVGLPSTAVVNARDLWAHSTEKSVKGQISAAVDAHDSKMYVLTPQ
Human maltase-glucoamylase, sequence (O43451 whole entry): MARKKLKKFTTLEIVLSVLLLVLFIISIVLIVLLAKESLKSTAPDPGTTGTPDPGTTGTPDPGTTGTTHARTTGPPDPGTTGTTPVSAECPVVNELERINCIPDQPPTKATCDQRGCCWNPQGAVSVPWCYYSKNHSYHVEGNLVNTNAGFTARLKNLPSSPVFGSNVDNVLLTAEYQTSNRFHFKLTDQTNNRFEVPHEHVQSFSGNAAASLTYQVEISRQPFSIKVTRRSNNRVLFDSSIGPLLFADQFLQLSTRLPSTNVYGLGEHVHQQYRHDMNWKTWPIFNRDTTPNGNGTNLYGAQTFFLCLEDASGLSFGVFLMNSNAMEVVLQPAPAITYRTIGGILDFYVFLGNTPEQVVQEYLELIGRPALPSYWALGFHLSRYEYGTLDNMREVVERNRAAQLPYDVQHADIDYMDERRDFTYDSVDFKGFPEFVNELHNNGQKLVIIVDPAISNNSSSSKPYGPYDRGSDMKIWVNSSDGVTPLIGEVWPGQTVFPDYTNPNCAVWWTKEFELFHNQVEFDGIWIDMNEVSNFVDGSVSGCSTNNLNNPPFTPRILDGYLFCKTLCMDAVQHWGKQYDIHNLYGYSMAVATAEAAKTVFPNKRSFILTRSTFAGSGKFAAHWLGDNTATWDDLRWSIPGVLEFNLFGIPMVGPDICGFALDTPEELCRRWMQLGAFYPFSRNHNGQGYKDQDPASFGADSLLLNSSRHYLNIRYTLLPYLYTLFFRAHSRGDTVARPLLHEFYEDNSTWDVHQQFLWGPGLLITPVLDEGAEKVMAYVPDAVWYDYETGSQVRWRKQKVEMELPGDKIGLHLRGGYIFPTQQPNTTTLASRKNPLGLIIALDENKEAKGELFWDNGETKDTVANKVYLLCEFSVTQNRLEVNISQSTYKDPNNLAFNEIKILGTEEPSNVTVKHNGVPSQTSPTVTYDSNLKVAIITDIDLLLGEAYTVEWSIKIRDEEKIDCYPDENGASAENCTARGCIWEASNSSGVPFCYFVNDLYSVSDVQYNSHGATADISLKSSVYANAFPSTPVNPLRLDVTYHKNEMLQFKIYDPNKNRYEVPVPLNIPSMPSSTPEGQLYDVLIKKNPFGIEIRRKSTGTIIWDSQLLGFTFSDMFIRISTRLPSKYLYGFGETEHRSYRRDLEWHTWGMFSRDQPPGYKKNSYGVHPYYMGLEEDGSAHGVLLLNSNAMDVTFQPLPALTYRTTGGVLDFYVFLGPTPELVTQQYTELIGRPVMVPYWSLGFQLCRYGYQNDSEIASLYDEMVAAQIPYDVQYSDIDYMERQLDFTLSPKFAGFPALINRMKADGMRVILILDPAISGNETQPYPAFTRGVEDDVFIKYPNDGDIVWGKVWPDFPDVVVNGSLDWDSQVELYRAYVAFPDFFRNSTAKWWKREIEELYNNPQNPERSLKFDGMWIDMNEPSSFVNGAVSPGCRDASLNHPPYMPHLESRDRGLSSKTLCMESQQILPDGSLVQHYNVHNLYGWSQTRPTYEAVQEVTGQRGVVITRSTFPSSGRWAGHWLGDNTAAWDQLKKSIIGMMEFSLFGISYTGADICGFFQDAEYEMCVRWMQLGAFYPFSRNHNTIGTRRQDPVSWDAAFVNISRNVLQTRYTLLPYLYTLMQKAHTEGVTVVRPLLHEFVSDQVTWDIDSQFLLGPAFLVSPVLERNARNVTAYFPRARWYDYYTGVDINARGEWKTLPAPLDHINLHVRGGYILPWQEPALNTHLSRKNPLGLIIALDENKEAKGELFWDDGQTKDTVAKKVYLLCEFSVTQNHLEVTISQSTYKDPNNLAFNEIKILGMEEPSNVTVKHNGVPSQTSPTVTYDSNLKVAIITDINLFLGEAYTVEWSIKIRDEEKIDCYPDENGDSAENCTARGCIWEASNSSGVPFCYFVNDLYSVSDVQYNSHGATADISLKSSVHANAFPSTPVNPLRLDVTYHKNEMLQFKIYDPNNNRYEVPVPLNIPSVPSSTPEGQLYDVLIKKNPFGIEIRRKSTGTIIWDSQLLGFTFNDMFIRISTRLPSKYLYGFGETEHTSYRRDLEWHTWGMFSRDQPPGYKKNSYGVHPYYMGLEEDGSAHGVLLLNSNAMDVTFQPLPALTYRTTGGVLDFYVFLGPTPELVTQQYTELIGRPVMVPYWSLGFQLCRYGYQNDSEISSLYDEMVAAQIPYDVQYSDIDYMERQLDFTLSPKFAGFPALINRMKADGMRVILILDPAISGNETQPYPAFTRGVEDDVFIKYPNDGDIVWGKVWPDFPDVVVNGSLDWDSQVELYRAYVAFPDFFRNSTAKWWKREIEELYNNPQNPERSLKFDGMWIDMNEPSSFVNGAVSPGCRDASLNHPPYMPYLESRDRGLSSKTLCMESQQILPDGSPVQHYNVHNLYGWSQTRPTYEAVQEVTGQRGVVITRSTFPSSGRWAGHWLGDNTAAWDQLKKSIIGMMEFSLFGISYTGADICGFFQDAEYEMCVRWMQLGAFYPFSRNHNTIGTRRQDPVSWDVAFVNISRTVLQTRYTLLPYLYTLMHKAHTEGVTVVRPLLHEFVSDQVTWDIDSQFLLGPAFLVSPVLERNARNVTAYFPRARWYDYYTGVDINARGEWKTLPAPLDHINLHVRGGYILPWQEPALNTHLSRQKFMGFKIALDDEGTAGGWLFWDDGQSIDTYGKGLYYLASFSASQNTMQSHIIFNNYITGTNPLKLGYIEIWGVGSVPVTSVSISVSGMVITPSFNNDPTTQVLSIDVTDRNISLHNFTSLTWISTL
Bacillus licheniformis α-amylase, sequence (P06278 30-512): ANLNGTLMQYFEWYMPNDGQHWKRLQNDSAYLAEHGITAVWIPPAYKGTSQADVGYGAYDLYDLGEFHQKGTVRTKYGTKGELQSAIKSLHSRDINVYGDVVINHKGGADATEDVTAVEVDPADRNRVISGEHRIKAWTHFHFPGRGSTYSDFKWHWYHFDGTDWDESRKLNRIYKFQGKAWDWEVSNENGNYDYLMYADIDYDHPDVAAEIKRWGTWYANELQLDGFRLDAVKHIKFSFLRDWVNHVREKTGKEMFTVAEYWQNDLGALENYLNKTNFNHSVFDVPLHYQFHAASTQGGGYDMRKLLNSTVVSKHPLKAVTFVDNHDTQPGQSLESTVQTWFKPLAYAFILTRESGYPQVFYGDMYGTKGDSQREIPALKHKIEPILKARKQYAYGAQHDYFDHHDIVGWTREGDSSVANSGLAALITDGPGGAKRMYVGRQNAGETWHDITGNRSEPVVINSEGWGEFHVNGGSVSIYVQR

Regarding “Ac-CYIYHGVSGIC-NH2 (disulfide 1-11 (inferred); listed as Stichodactyla helianthus) [truncated peptide]”, in the data set with mammalian alpha-amylase, the “Inhibitory Activity” value was found to be 30 µM.

Regarding “Ac-YIYH-NH2 (listed as Stichodactyla helianthus) [truncated peptide, Ac represents the acetyl functional group]”, in the data set with mammalian alpha-amylase, the “mammalian alpha-amylase inhibitory activity (in words)” value is recorded as “did not have detectable” and the “Inhibitory Activity” value was “no inhibition detected”.

Regarding “Ac-YIYHGVSGI-NH2 (listed as Stichodactyla helianthus) [truncated peptide]”, the “Inhibitory Activity” value in the data set with mammalian alpha-amylase turned out to be 25 µM.

Consider “ESGNSCYIYHGVSGICKASCAEDEKAMAGMGVCEGHLCCYKTPW (listed as Stichodactyla helianthus) [helianthamide]”, for which the entries for the “Ki / inhibition constant estimated in preliminary tests” value in data set [1] and in [1] (listed as Helianthamide) were “low-nM” and “low nanomolar; also recorded: low nano-molar”, respectively. Further, the “mode of HPA inhibition” value in data set [1] (preliminary tests, natural material) was “reversible competitive inhibition”. The pKi (at Almond β-glucosidase; in [2]; in data set [3]; in [4]; in data set [5]; in data set [6]) was less than 6.00 throughout. In addition, the pKi (in data set [7]; in the data set with Jack bean α-mannosidase; in data set [8]) was less than 6.00 throughout. For the same substance, the resistance to proteolysis entry in data set [9] is “resistant to proteolysis”. Also, in [10], the “intact peptide remaining after acid incubation” value is on record as “a large proportion of intact peptide remained”.

Regarding Montbretin A, the pKi in data set [11] is 8.10.

The values are drawn from US10583167B2, “Mammalian glucosidase inhibitors, methods for their use and pharmaceutical compositions thereof” (THE UNIVERSITY OF BRITISH COLUMBIA, priority 2015, dated 2020).
